The values below come from US20160166666A1, “TUMOR ANTIGEN PEPTIDE” (Sumitomo Dainippon Pharma Co., Ltd., priority 2013, published 2016).

Assay [1] has as its target T1, HLA-A*02:01 on T2 cells (human, UniProt P04439 25-302 at identity 0.94)).
T1 construct: whole, on cells; Empty MHC class I on the cell surface that is stabilized by an added peptide; the text gives HLA-A*02:01
T1 MHC heavy: not shown
Nature of the assay: MHC class I expression stabilization test on T2 cells, flow cytometry.

In assay [2] the target is T1, HLA-A*02:01 on T2 cells. Description: MHC class I expression stabilization test on T2 cells as in Example 2, flow cytometry.
Assay [3] has as its target T1, HLA-A*02:01 on T2 cells. Description: MHC class I expression stabilization test on T2 cells, peptide 100 µg/mL, FITC anti-HLA-A02 (BB7.2), flow cytometry; control in the column of SEQ ID No: 4. Background: A flow cytometer gives signals particle by particle.
Assay [4] concerns the target T1, HLA-A*02:01 on T2 cells. Nature of the assay: MHC class I expression stabilization test on T2 cells, peptide 100 µg/mL, FITC anti-HLA-A02 (BB7.2), flow cytometry; control in the column of SEQ ID No: 5.
The target in assay [5] is T1, HLA-A*02:01 on T2 cells. Description: MHC class I expression stabilization test on T2 cells, peptide 100 µg/mL, FITC anti-HLA-A02 (BB7.2), flow cytometry; control in the column of SEQ ID No: 6.

B1: MAGE-1 161-169 peptide (peptide)
peptide: EADPTGHSY
notes: Negative control peptide for HLA-A02; also called HLA-A02-negative control; Negative control
Consider B1, for which the binding result in the assay with HLA-A*02:01 on T2 cells [1] is given as “no binding”. The “mean fluorescence intensity (MFI) solvent ratio” value in the assay with HLA-A*02:01 on T2 cells [2], with HLA-A*02:01 on T2 cells [3], with HLA-A*02:01 on T2 cells [4] and with HLA-A*02:01 on T2 cells [5] was 1 ratio to solvent throughout.
